Legend:
[1] = target: Crc R90E,Y91F (Flag-tagged, from pME4510crc(R90E,Y91F)Flag) (Pseudomonas aeruginosa) (UniProt Q51380)
[2] = target: Pseudomonas aeruginosa Hfq (Pseudomonas aeruginosa) (UniProt Q9HUM0)
[3] = target: Hfq (Pseudomonas aeruginosa) (UniProt Q9HUM0); experiment: EMSA; details: EMSA: 20 mM Tris-HCl pH 8.0, 40 mM NaCl, 10 mM KCl, 1 mM MgCl2; 200 nM RNA; 15 min at 37 C; 4% PAA gel in 1x TBE at 4 C, SYBR gold

In the case of “Crc R90E,Y91F (Flag-tagged, from pME4510crc(R90E,Y91F)Flag) (from UniProt Q51380 1-259) (natural protein)”, the translational repression of the rbsB+13::lacZ reporter gene (β-galactosidase activity) in P. aeruginosa PAO1Δcrc [1] is reported as 2 fold, the de-repression of translation of the amiE+60::lacZ reporter gene (β-galactosidase activity) in P. aeruginosa PAO1Δcrc [2] is reported as 7 fold and the de-repression of translation of the estA+18::lacZ reporter gene (β-galactosidase activity) in P. aeruginosa PAO1Δcrc [2] is reported as 2 fold.
For “GGCUGAGGAGGCUUUACGACGGGCCCCGGGGCGCAUGCCGACGACGCGGCGGCCCGACAAUAAAAACAAAUCAUGGAGUAAGAGAAUGAUCAGAAUGGCGCUCAAGCCACUGGUAGCG [estA118]”, the binding [3] was “binds”.
“GGGCCUUUUUUCGUCCCGAAAAAAUAACAACAAGAGGUGAUAUCCAUGCGUCACGGCGAUAUUUCCAGCAGCAACGACACCGUCGGAGUGGCGGUGGUCAACUAC [amiE105]” was tested, and the binding [3] was “binds”.
With “GGAACGCAAACGUUUGCGUCUGGAUAAUCUCCUGGAAAAGCCUCAAUACAACGAUAAGAAAAGCUGGAGGAUACACCAUGAAGCGGGUCGCUUCCCGGCGCCUGUUGGCU [rbsB110]” the binding [3] was “binds”.

Source: publication PMC9890229
